Data: the nanobody polyreactivity screen of Harvey et al. (2022)

Assay: yeast display, Sf9 membrane polyspecificity reagent, FACS + sequencing; frameworks hold sequencing errors
How it was run: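 Nanobodies from a synthetic yeast display library (Saccharomyces cerevisiae BJ5465), induced 36–48 hours with galactose, were stained 1 hour at 4 °C with 10% biotinylated, detergent-solubilized Sf9 membrane reagent, enriched on streptavidin microbeads, then FACS-sorted. Anti-HA (expression) and streptavidin (reagent binding) fluorescence set low and high (top ~1%) gates. Polyreactivity labels come from the gate of origin. Genes were colony-PCR amplified, MiSeq 2 × 250 sequenced and filtered by CDR length.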

Row | Sequence | polyreactivity (PSR sort gate)
1 | QVQLVESGGGLVQAGGSLRLSCAASGRIFYYNAMGWYRQAPGKEREFVAAITYRGGSTYYADSVKGRFTISRDNAKNTVYLQMNSLKPEDTAVYYCAARSAWQVAPRGRTVAFDYWGQGTQLTVSS | high polyreactivity
2 | QVQLVESGGGLVQAGGSLRLSCAASGRIFAVNTMGWYRQAPGKEREFVAAISDSGGGTYYADSVKGRFTISRDNAKKTVYLQMNSLKPEDTAVYYCNAKGQRSPYSKLEYWGQGTQVTVSS | high polyreactivity
3 | QVLLVESAVGLVQAVGSLRLSCAASGSICYTNGMGWYRQAPGNERELVASITRSGGSTYYADSVKGRFTISRDNAKNSVYLQMNRLKPEDTAVYYCATSWGYRGLWGLRFDYWGQGTQVSVSS | low polyreactivity
4 | QVPLVESGGGLVQAGGSLRLSCAASGRIFGTNTMGWYRQAPGKEREWVAAITWSGGSTYYADSGTGRFTISRDNAKNPVYLQMNSLNPEDTAGYYCNVESAYAYHGPVDYWGQGTQVTVSS | low polyreactivity
5 | QVQLVESGGGLVQAGGSLRLSCAASGSIFGYAMGWYRQAPGKERELVAAITVSGGRTYYADSVKGRFTISRDNAKNTVYLQMNSLKPEDTAVYYCAAYYIKGYSPGYWGQGTQVTVSS | high polyreactivity
6 | QVQLVESGVGLVQAGGTLRLSCAASGSIFDPYAMGWYRQAPGKERELVAAITYSVGGTTYYADSVKGRFTISRDNAKNTVYLQMNSLKPEDTAVYYCAAEWWGNPFDYWGQGTQVTVST | high polyreactivity
7 | QVQLVESGGGLVQAGGSLRLSCAASGRIFTTYAMGWYRPAPGKERELVAAISQNGGSTYYADSVKGRFTISRDNAKNTVFLQMNSLKPEDTAVYYCNAGPAGYYDYDYWGQGTLVTVSS | low polyreactivity
8 | QVQLVESGGGLVQAGGSLRLSCAASGRTFSTYAMGWCRQAPGKERELVAAISRRGGSTYYADSVKGRFTISRDNAKYTVYLQMNSLKPEDTAVYYGAADSYDSDVNEYDYWGQGTQVTVSS | high polyreactivity
9 | QVQHVESGGGLVQAGGSLRLSCAASGFIFARNAMGWYRQAPGKERELVAAITWSGGSTYADSVKGRFTISRDNAKNTVYLQMNSLKPEDTAVYYCAADSYPAYLGFVGFDYWGQGTQVTVSS | low polyreactivity
10 | QVQLVESGGGLVQAGGSLRLSCAASGRTLFYYTMGWYRQAPGKERELVAAISSGDSTNYADSVKGRFTISRDNAKNTVYLQMNSLQPEDTAVYYCATQYLLDYKKTYRTYYSPYDYWGQGTQVTVSS | low polyreactivity
11 | QVQLVESGGGLVQAAGSLRLSCAASGITFSWYAMGWYRQAPGNERALVASITQSGGSTYYADSVKGRFTISRDNAKNTVYLQMTCLKPEVTAVYYCSKRYLKPVYCYVRNYGSDYWGQGTQVTVSS | low polyreactivity
12 | QVQLVESGGGLVQAGGSLRLSCAASGFTFRAYAMGWYRPAPAKERELVAAISTGGGSTYYADSVKGRFTISRDIAKHTVYLQLNSLKPEDTAVYYCNALPQRRYYYWGQGTQVTVSS | high polyreactivity
13 | QVQLVESGGGLVQAGGSLRLSCAASGRIFGYYAMGWYRQAPGKERELVASITNGASTNYADSVKGRFTISRDNAKNTVYLQMNSLKPEDTAVYYWNARRGSRRFGYWGQGTQVTVSS | high polyreactivity
14 | QVQLVESGGGLVQAGGSLRLSCAASGNIFRYYVMGWYRQAPGKEREFVAAITSSGGSTYYADSVKGRFTISRDNAKNTVYLQMNSLKPEDTAVYYCAKDYWDPGWAEYDYWGQGTQVTVSS | low polyreactivity
15 | QVQLVESGGGLVQAGGSLRLSCAASGSIFPRNAMGWYRQAPGKERELVARINSGGTTKYADSVKGRFTISRDNAKNTVYLQMNSLKPEDTAVYYCNADTYILDPLRKSYGYDYWGQGTQVTVSS | low polyreactivity
16 | QVQLVESGGGLVQAGVSLRLSCAASGFIFEPSAMGWYRQAPGKERELVAAISSGGSTNADSVKGRFTISRDNAKNTVYLQMNSLKPEDTAVYYCAADSYYSVWGFYYWGQGTQVTVSS | low polyreactivity

Row | Sequence | polyreactivity (PSR sort gate)
17 | QVHLVESGGGLVQAGGSLRLSCAASGRTFRRYAMGWYRQAPGKERELVAAISYNGGRTYYADSVKGRFTISRDNAKNSVYLQMNILKPEDTAVYYCNAERGFSDYWGQGTQVTVSS | high polyreactivity
18 | QVQHVESGGGLVQAGGSLRLSCAASGRIFAYNAMGWYRQAPGKERELVADISSGGNTYYADSVKGRFTISRDNAKNTVYLQMNSLKPEDTAVYYCAADIALYTHYHRIFDYWGQGTQVTVSS | low polyreactivity
19 | QVQLVESGGGLVQAGGSLRLSCAASGIILYRNGMGWYRQAPGKERELVAVISRRGGTYYADSVKGRFTISRDNAKITVYLQLNSLKPEDTAVYYCAAYLSPIGNFRGGGDYWGQGTQVTVSS | high polyreactivity
20 | QVQLVESGGGLVQAGGSLRLICAASGSTFNVYAMGWYIPAPGKERELVASIRTSGTRTYYADSVKGRFTISRDNAKNNVYLQMNSLKPEDTAVYYCNARYYSNLRRHGGYWGQGTQVTVSS | high polyreactivity
21 | QVQLVESGGGLVQAGGSLRLSCAASGRIFRFYAMGCYIQAPGKERELVAVITARGGSTYYADSVKGRFTISRDNAKNNVYLQMNSLKPEDTAVYYCASTRVKGYTVVKSRRGEIDYWGQGTQVTVSS | high polyreactivity
22 | QVQLVESGAGLVQAGVSLRLSCAPSGFTFTGYAMGWYRQSPGKERELVASISKSDGSTYYAESVKGRFTISRDNAKNTVYLQMNSLKPEDTAVFYCAADANTRGSKGRLTHYDYWGQGSQVTVSS | low polyreactivity
23 | QVQLVDSGGGLVQAGGSLRLSCAATGTIFAAYVMGWYRQAPGKERELVAAISYSGGGTYYADSVNGRFTISRDNAKNTVYIQMNSLKPEDTAVYYCAADFGVFKSARYYYWGQGTQVTVSS | low polyreactivity
24 | QVQLEDSGGGLVQAGGSLRLSCAASGSTISYYTMGWYRQAPGKERELVAAISSGGSTYADSVKGRFTISRDNAKNTVYLQMNSLKPDDTAVYYCAVDGFDYGPSQALDYWGPGTQVTVSS | low polyreactivity
25 | QVQLVDSGGGLVQAGGSLRLSCAAYGSTFRGYAMGWYRPAPGKERELVAAISWSGGITYYADSVKGRFTISRDNAKNTVYLQMNRLKPEDTAVYYCAAVWDQVSDRYMLEYCGQGTQVTVSS | high polyreactivity
26 | QVQLVESGGGLVQAGGSLRLSCAASGITFAYNVMGWYRQAPGKERELVAAISWTGSSTYYADSVKGRFTISRDNAKNTVYLQMNSLKQEDTAVYYCAARQRYRYDYWGQGTQVTVSS | high polyreactivity
27 | QVQLVESGGGLVQAGGSLRLSCAASGRIFPKNAMGWYRQAPGTERELVAAISSGGRTKYADSVKGRFTISRDNAKNTVYLQMNSLKPEDTAVYYCAAYFVSKTGGYYYWGQGTQVSVSS | high polyreactivity
28 | QVQLVESGGGLVQAGGSLRLSCAASGLIFYSYAMGWYRQAPGKERELVAAINGGGGSTYYADSVKGRFTISRDNAKNTVYLQMNSLKPEDTAVYYCAAVRSIVDWGLMYYWGQGTQVTVSS | high polyreactivity
29 | QVQLVESGGGLVQAGGSLRLSCAASGSIFAVYAMGWYRQAPGKERELVASITNDGSTYADSVKGRFTISRDNAKNTVYLQLNSLKPEDTAVYYCNADYLTYFTTFDYWGQGTQVTVSS | low polyreactivity
30 | QVQLVDSGGGLVQAGGSLRLSCAASGSTFVTYAMRWYRQAPVKERELVAAITEDGASTYYADSVKGRFTISRDNAKNTVYFQLNSLYPEDTAVYYCAADPTYWPVWYVLYDYWGQGTQVTVSS | low polyreactivity
31 | QVQLVESGGGLVQAGGSLRLSCAASGSIFNGNAMGWYRQAPGKERELVAAISRNGGSTYYADSVKGRFTISRDNAKNTVYLQMNSLKPEDTAVYYCAVRKRPHGYLAFGYWGQGTQVTVSS | low polyreactivity
